Results taken from patent publication US20190309288A1, “TARGETED MUTAGENESIS” (THE BOARD OF TRUSTEES OF THE LELAND STANFORD JUNIOR …, priority 2016, published 2019).

Columns and labels:
GFP and mCherry = assay: Simultaneous mutation of two loci, flow cytometry; type: cell-based; details: cells expressing dCas9, MS2-AID*Δ
Procedure: Scatter plots were generated in FlowJo.
Independent mutagenesis at multiple locations is typically not possible with traditional directed evolution experiments. However, the CRISPR/Cas9 system can target multiple loci using different sgRNAs (26, 27). Accordingly, experiments were conducted using two guides, one targeting GFP (sgGFP.10) and the other targeting mCherry (sgmCherry.1), both individually and in combination.

GFP = details: cells expressing dCas9, MS2-AID*Δ, mCherry, sgRNA individually
Procedure: (§1) Lentiviral production as well as infection and culturing of K562 cells (ATCC) were performed as described (45). Parental K562 cell lines were generated by infecting dCas9-Blast (pGH125) followed by blasticidin selection (10 μg/mL, Gibco) for 7 days. Cells were subsequently infected with both GFP (pGH045) and mCherry (pGH044) expression vectors or with a wtGFP (pGH220) expression vector and sorted via FACS for fluorescence. These cell lines were used as the parental samples in the sequencing assays. For experiments using an integrated construct, cells were infected with MS2-AID (pGH153, 156, 183, and 335) expressing vectors followed by selection with hygromycin B (200 μg/mL, Life Technologies) for 7 days. All cell lines were maintained in a humidified incubator (37° C., 5% CO2), and checked regularly for mycoplasma contamination.
(§2) Nucleofection of K562 cells was performed as described (46). 1 million K562 cells were harvested for each electroporation. Cells were centrifuged at 300×g for 5 minutes and resuspended in 100 μL of nucleofection solution and mixed with plasmid DNA (5 μg MS2-AID expressing plasmid and 5 μg sgRNA expression vector) and loaded into a 2 mm cuvette (VWR). Electroporations were performed using the T-016 program on the Lonza Nucleofector 2b. After electroporation, cells were rescued in warm, supplemented RPMI media.

mCherry = mCherry fluorescence by flow cytometry as proxy for off-target mutation; type: cell-based; details: cells expressing dCas9, MS2-AID*Δ, GFP, sgRNA individually
Procedure: as §1, §2

PSMB5 = assay: Installation and validation of bortezomib resistant PSMB5 mutations, cell viability; type: cell-based; details: mutation knocked into K562 cells at native PSMB5 locus; 20 nM bortezomib, 14 days; compared to controls
Procedure: sgRNAs were designed to target near the location of the installed SNP and 101-nt donor oligos were designed to be centered around the installed mutation. Oligonucleotides with proper overhangs were ordered from IDT and annealed before ligation into BbsI digested pGH020, a hu6 driven sgRNA expression vector. All plasmids were verified by Sanger sequencing.
K562 cells expressing Cas9 were electroporated with 5 μg of sgRNA expressing vector and 100 picomoles of donor oligo. Cells were grown for 6 days before 300,000 cells were placed under selection with 20 nM bortezomib for 14 days. The viability of the cells was measured by flow cytometry using a live cell gate (FSC/SSC). After selection, 750,000 cells were harvested and genomic DNA was extracted using the QiaAmp DNA Mini Kit (Qiagen). The PSMB5 exonic locus containing the mutation was PCR amplified, gel purified, and ligated into the pCR-Blunt vector using the Zero-Blunt cloning kit (Life Technologies). 8-15 colonies were Sanger sequenced for each sample.
Eight of these mutations were functionally validated by knocking each one into the genome separately at the native PSMB5 locus using active Cas9 cutting followed by HDR mediated by a DNA donor oligo (26, 27). To control for the effect of Cas9 cutting and HDR, a synonymous mutation not identified in our screen was knocked into each exon. Cas9 expressing K562 cells were electroporated with donor oligo and sgRNA and incubated for six days followed by subsequent selection with bortezomib. After 14 days, the viability of the cells was measured (FIG. 12). […] For the most resistant mutations, the PSMB5 locus was sequenced following bortezomib selection and the presence of the expected mutation was verified in the majority of non-frameshifted sequences (FIG. 13). Together, these experiments indicate that the technology provided herein selectively mutagenized an endogenously expressed protein target, identifying known and novel mutants that confer drug resistance.

Molecule	protection against bortezomib-induced cell death (viability) (PSMB5)	further results
sgGFP.10: sgRNA targeting GFP, sequence CGTCGCCGTCCAGCTCGACC (SEQ ID NO: 38) (chemistry not given here)		cells with mutations at both loci (neither GFP nor mCherry) (GFP and mCherry): 0.26%; GFP low population (GFP): ~15%
sgmCherry.1: sgRNA targeting mCherry, sequence GCGGTCTGGGTGCCCTCGTA (SEQ ID NO: 81) (listed as DNA, chemistry not fully specified)		mCherry low population (mCherry): ~15%; cells with mutations at both loci (neither GFP nor mCherry) (GFP and mCherry): 0.30%
R78N: PSMB5 variant, chr14: 23033640 C > A/T (protein, UniProt P28074 60-263, looked up, variant R78N) Proteasome subunit beta type-5: TTTLAFKFRHGVIVAADSNATAGAYIASQTVKKVIEINPYLLGTMAGGAADCSFWERLLARQCRIYELRNKERISVAAASKLLANMVYQYKGMGLSMGTMICGWDKRGPGLYYVDSEGNRISGATFSVGSGSVYAYGVMDRGYSYDLEVEQAYDLARRAIYQATYRDAYSGGAVNLYHVREDGWIRVSSDNVADLHEKYSGSTP	strongly protective	
A108V: PSMB5 variant, chr14: 23033550 G > A; residue known to be involved in binding bortezomib (protein, UniProt P28074 60-263, looked up, variant A108V) Proteasome subunit beta type-5: TTTLAFKFRHGVIVAADSRATAGAYIASQTVKKVIEINPYLLGTMAGGVADCSFWERLLARQCRIYELRNKERISVAAASKLLANMVYQYKGMGLSMGTMICGWDKRGPGLYYVDSEGNRISGATFSVGSGSVYAYGVMDRGYSYDLEVEQAYDLARRAIYQATYRDAYSGGAVNLYHVREDGWIRVSSDNVADLHEKYSGSTP	strongly protective	
L11L: PSMB5 synonymous mutation in exon 1, chr14: 23034851 G > A (protein, UniProt P28074 60-263, looked up, synonymous mutation L11L, PSMB5 synonymous mutation in exon 1, chr14: 23034851 G > A) Proteasome subunit beta type-5: TTTLAFKFRHGVIVAADSRATAGAYIASQTVKKVIEINPYLLGTMAGGAADCSFWERLLARQCRIYELRNKERISVAAASKLLANMVYQYKGMGLSMGTMICGWDKRGPGLYYVDSEGNRISGATFSVGSGSVYAYGVMDRGYSYDLEVEQAYDLARRAIYQATYRDAYSGGAVNLYHVREDGWIRVSSDNVADLHEKYSGSTP	more modest protection	
G242D: PSMB5 variant in exon 4, chr14: 23026156 C > T (protein, UniProt P28074 60-263, looked up, variant G242D) Proteasome subunit beta type-5: TTTLAFKFRHGVIVAADSRATAGAYIASQTVKKVIEINPYLLGTMAGGAADCSFWERLLARQCRIYELRNKERISVAAASKLLANMVYQYKGMGLSMGTMICGWDKRGPGLYYVDSEGNRISGATFSVGSGSVYAYGVMDRGYSYDLEVEQAYDLARRAIYQATYRDAYSGGAVNLYHVREDDWIRVSSDNVADLHEKYSGSTP	strongly protective	
G82D: PSMB5 variant, chr14: 23033628 C > T (protein, UniProt P28074 60-263, looked up, variant G82D) Proteasome subunit beta type-5: TTTLAFKFRHGVIVAADSRATADAYIASQTVKKVIEINPYLLGTMAGGAADCSFWERLLARQCRIYELRNKERISVAAASKLLANMVYQYKGMGLSMGTMICGWDKRGPGLYYVDSEGNRISGATFSVGSGSVYAYGVMDRGYSYDLEVEQAYDLARRAIYQATYRDAYSGGAVNLYHVREDGWIRVSSDNVADLHEKYSGSTP	more modest protection	
